T1: single chain human CD3ε-26mer-CD3γ (CD3εγ) (human)
T1 construct: also called human CD3εγ
T1 chain: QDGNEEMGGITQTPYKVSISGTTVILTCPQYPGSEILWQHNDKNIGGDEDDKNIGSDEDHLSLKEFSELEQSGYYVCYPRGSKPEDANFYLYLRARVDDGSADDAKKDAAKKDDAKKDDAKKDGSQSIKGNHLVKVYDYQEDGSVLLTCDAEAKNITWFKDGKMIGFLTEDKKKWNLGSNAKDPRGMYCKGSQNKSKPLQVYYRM


Tests used:
[1] = target: CD3 antigen of Figures 3B and 3C (not named); assay: kinetic table of IgGs; method and antigen not stated
[2] = target: T1, single chain human CD3ε-26mer-CD3γ …; assay: Biacore, human CD3εγ on chip, antibody in flow-through
[3] = target: T1, single chain human CD3ε-26mer-CD3γ …; assay: Biacore, human CD3εγ on chip, Fab in flow through
Method: Binding affinities for the each of the CD3/CD20 TDBs were tested by Biacore or FACS analysis, as described above for the anti-CD3 antibodies. Briefly, for Biacore binding assays, human CD3εγ was immobilized on Biacore Series S CM5 sensor chip using the amine coupling kit from Biacore and CD3/CD20 TDBs or Fab variants thereof were in the flow through. For FACS binding assays, either Bjab cells (for B cell antigens) or Jurkat cells (for CD3 antigen) were incubated with various concentrations of TDB antibodies at 4° C. for 30 minutes, then cells were washed and incubated with 2nd antibody (anti-huIgG-PE; BD Bioscience) for another 15 minutes, before cells were washed again and ready for FACS analysis.

Kd [2]	koff [2]	kon [2]	Kd [3]	koff [3]	kon [3]	Binder	further results
–	–	–	63.2 nM	0.0253 s⁻¹	401000 M⁻¹ s⁻¹	40G5c Fab (Fab, V domains shown) VH: EVQLVQSGAEVKKPGASVKVSCKASGYTFTNYYIHWVRQAPGQGLEWIGWIYPGDGNTKYNEKFKGRATLTADTSTSTAYLELSSLRSEDTAVYYCARDSYSNYYFDYWGQGTLVTVSS VL: DIVMTQSPDSLAVSLGERATINCKSSQSLLNSRTRKNYLAWYQQKPGQPPKLLIYWASTRESGVPDRFSGSGSGTDFTLTISSLQAEDVAVYYCTQSFILRTFGQGTKVEIK	–
–	–	–	87 nM	0.0246 s⁻¹	283000 M⁻¹ s⁻¹	38E4v7 Fab (Fab, V domains shown) VH: EVQLVQSGAEVKKPGASVKVSCKASGFTFTSYYIHWVRQAPGQGLEWIGWIYPENDNTKYNEKFKDRVTITADTSTSTAYLELSSLRSEDTAVYYCARDGYSRYAFDYWGQGTLVTVSS VL: DIVMTQSPDSLAVSLGERATINCKSSQSLLNSRTRKNYLAWYQQKPGQSPKLLIYWTSTRKSGVPDRFSGSGSGTDFTLTISSLQAEDVAVYYCKQSFILRTFGQGTKVEIK	–
–	–	–	180 nM	0.202 s⁻¹	1.12e+06 M⁻¹ s⁻¹	38E4v8 Fab (Fab, V domains shown) VH: EVQLVQSGAEVKKPGASVKVSCKASGFTFTSYYIHWVRQAPGQGLEWIGWIYPENDNTKYNEKFKDRVTITADTSTSTAYLELSSLRSEDTAVYYCARSGYSRYYFDYWGQGTLVTVSS VL: DIVMTQSPDSLAVSLGERATINCKSSQSLLNSRTRKNYLAWYQQKPGQSPKLLIYWTSTRKSGVPDRFSGSGSGTDFTLTISSLQAEDVAVYYCKQSFILRTFGQGTKVEIK	–
–	–	–	34.2 nM	0.00175 s⁻¹	51100 M⁻¹ s⁻¹	38E4v6 Fab (Fab, V domains shown) VH: EVQLVQSGAEVKKPGASVKVSCKASGFTFTSYYIHWVRQAPGQGLEWIGWIYPENDNTKYNEKFKDRVTITADTSTSTAYLELSSLRSEDTAVYYCARTGYSRYYFDYWGQGTLVTVSS VL: DIVMTQSPDSLAVSLGERATINCKSSQSLLNSRTRKNYLAWYQQKPGQSPKLLIYWTSTRKSGVPDRFSGSGSGTDFTLTISSLQAEDVAVYYCKQSFILRTFGQGTKVEIK	–
–	–	–	11 nM	0.0225 s⁻¹	2.05e+06 M⁻¹ s⁻¹	38E4v5 Fab (Fab, V domains shown) VH: EVQLVQSGAEVKKPGASVKVSCKASGFTFTSYYIHWVRQAPGQGLEWIGWIYPENDNTKYNEKFKDRVTITADTSTSTAYLELSSLRSEDTAVYYCARDGYSRYYFDYWGQGTLVTVSS VL: DIVMTQSPDSLAVSLGERATINCKSSQSLLNSRTRKNYLAWYQQKPGQSPKLLIYWTSTRKSGVPDRFSGSGSGTDFTLTISSLQAEDVAVYYCKQSAILRTFGQGTKVEIK	–
–	–	–	229 nM	0.0166 s⁻¹	72600 M⁻¹ s⁻¹	38E4v9 Fab (Fab, V domains shown) VH: EVQLVQSGAEVKKPGASVKVSCKASGFTFTSYYIHWVRQAPGQGLEWIGWIYPENDNTKYNEKFKDRVTITADTSTSTAYLELSSLRSEDTAVYYCARDGYSRAYFDYWGQGTLVTVSS VL: DIVMTQSPDSLAVSLGERATINCKSSQSLLNSRTRKNYLAWYQQKPGQSPKLLIYWTSTRKSGVPDRFSGSGSGTDFTLTISSLQAEDVAVYYCKQSFILRTFGQGTKVEIK	–

Second part, the binder before the results:

Binder	Kd [2]	koff [2]	kon [2]	Kd [3]	koff [3]	kon [3]	further results
127B3 (antibody, IgG3, V domains shown, mouse hybridoma clone) VH: QVQLQQSGSELVRPGASLKLSCKASGYTFTSYWMHWVRQRPGQGLEWIGNFYPGDLTVNYDEKFKNKVTLAVDTSSSTAFLQLSSLTSEDSAVYYCTRDAYSRYFFDYWGQGTTLTVSS VL: DIVMTQSPSSLAVSAGEKVTMSCKSSQSLLNSRTRKNYLAWYQQKPGQSPKLLIYWASTRESGVPDRFTGSGSGTDFTLTISSVQTEDLAVYYCCQSFILRTFGGGTKLEIK	–	–	–	–	–	–	Kd [1]: 0.744 nM; koff [1]: 9.67e-05 s⁻¹; kon [1]: 130000 M⁻¹ s⁻¹
38E4 v2 (antibody, V domains shown) VH: EVQLVQSGAEVKKPGASVKVSCKASGFTFTSYYIHWVRQAPGQGLEWIGWIYPENDNTKYNEKFKDRVTITADTSTSTAYLELSSLRSEDTAVYYCARDAYSRYYFDYWGQGTLVTVSS VL: DIVMTQSPDSLAVSLGERATINCKSSQSLLNSRTRKNYLAWYQQKPGQSPKLLIYWTSTRKSGVPDRFSGSGSGTDFTLTISSLQAEDVAVYYCKQSFILRTFGQGTKVEIK	1.6 nM	0.0036 s⁻¹	2.29e+06 M⁻¹ s⁻¹	–	–	–	–
38E4 v6 (antibody, V domains shown) VH: EVQLVQSGAEVKKPGASVKVSCKASGFTFTSYYIHWVRQAPGQGLEWIGWIYPENDNTKYNEKFKDRVTITADTSTSTAYLELSSLRSEDTAVYYCARTGYSRYYFDYWGQGTLVTVSS VL: DIVMTQSPDSLAVSLGERATINCKSSQSLLNSRTRKNYLAWYQQKPGQSPKLLIYWTSTRKSGVPDRFSGSGSGTDFTLTISSLQAEDVAVYYCKQSFILRTFGQGTKVEIK	34 nM	0.0017 s⁻¹	51100 M⁻¹ s⁻¹	–	–	–	–
38E4 v5 (antibody, V domains shown) VH: EVQLVQSGAEVKKPGASVKVSCKASGFTFTSYYIHWVRQAPGQGLEWIGWIYPENDNTKYNEKFKDRVTITADTSTSTAYLELSSLRSEDTAVYYCARDGYSRYYFDYWGQGTLVTVSS VL: DIVMTQSPDSLAVSLGERATINCKSSQSLLNSRTRKNYLAWYQQKPGQSPKLLIYWTSTRKSGVPDRFSGSGSGTDFTLTISSLQAEDVAVYYCKQSAILRTFGQGTKVEIK	11 nM	0.0225 s⁻¹	2.05e+06 M⁻¹ s⁻¹	–	–	–	–
38E4 v9 (antibody, V domains shown) VH: EVQLVQSGAEVKKPGASVKVSCKASGFTFTSYYIHWVRQAPGQGLEWIGWIYPENDNTKYNEKFKDRVTITADTSTSTAYLELSSLRSEDTAVYYCARDGYSRAYFDYWGQGTLVTVSS VL: DIVMTQSPDSLAVSLGERATINCKSSQSLLNSRTRKNYLAWYQQKPGQSPKLLIYWTSTRKSGVPDRFSGSGSGTDFTLTISSLQAEDVAVYYCKQSFILRTFGQGTKVEIK	229 nM	0.0166 s⁻¹	72600 M⁻¹ s⁻¹	–	–	–	–
38E4 v8 (antibody, V domains shown) VH: EVQLVQSGAEVKKPGASVKVSCKASGFTFTSYYIHWVRQAPGQGLEWIGWIYPENDNTKYNEKFKDRVTITADTSTSTAYLELSSLRSEDTAVYYCARSGYSRYYFDYWGQGTLVTVSS VL: DIVMTQSPDSLAVSLGERATINCKSSQSLLNSRTRKNYLAWYQQKPGQSPKLLIYWTSTRKSGVPDRFSGSGSGTDFTLTISSLQAEDVAVYYCKQSFILRTFGQGTKVEIK	180 nM	0.202 s⁻¹	1.12e+06 M⁻¹ s⁻¹	–	–	–	–
38E4 v7 (antibody, V domains shown) VH: EVQLVQSGAEVKKPGASVKVSCKASGFTFTSYYIHWVRQAPGQGLEWIGWIYPENDNTKYNEKFKDRVTITADTSTSTAYLELSSLRSEDTAVYYCARDGYSRYAFDYWGQGTLVTVSS VL: DIVMTQSPDSLAVSLGERATINCKSSQSLLNSRTRKNYLAWYQQKPGQSPKLLIYWTSTRKSGVPDRFSGSGSGTDFTLTISSLQAEDVAVYYCKQSFILRTFGQGTKVEIK	87 nM	0.0246 s⁻¹	283000 M⁻¹ s⁻¹	–	–	–	–
38E4v3 Fab (Fab, V domains shown) VH: EVQLVQSGAEVKKPGASVKVSCKASGFTFTSYYIHWVRQAPGQGLEWIGWIYPENDNTKYNEKFKDRVTITADTSTSTAYLELSSLRSEDTAVYYCARDGYSRYYFDYWGQGTLVTVSS VL: DIVMTQSPDSLAVSLGERATINCKSSQSLLNSRTRKNYLAWYQQKPGQSPKLLIYWTSTRKSGVPDRFSGSGSGTDFTLTISSLQAEDVAVYYCKQSFALRTFGQGTKVEIK	–	–	–	3.4 nM	0.014 s⁻¹	4.11e+06 M⁻¹ s⁻¹	–
38E4 v4 (antibody, V domains shown) VH: EVQLVQSGAEVKKPGASVKVSCKASGFTFTSYYIHWVRQAPGQGLEWIGWIYPENDNTKYNEKFKDRVTITADTSTSTAYLELSSLRSEDTAVYYCARDGYSRYYFDYWGQGTLVTVSS VL: DIVMTQSPDSLAVSLGERATINCKSSQSLLNSRTRKNYLAWYQQKPGQSPKLLIYWTSTRKSGVPDRFSGSGSGTDFTLTISSLQAEDVAVYYCKASFILRTFGQGTKVEIK	10 nM	0.0034 s⁻¹	325000 M⁻¹ s⁻¹	–	–	–	–
38E4 v3 (antibody, V domains shown) VH: EVQLVQSGAEVKKPGASVKVSCKASGFTFTSYYIHWVRQAPGQGLEWIGWIYPENDNTKYNEKFKDRVTITADTSTSTAYLELSSLRSEDTAVYYCARDGYSRYYFDYWGQGTLVTVSS VL: DIVMTQSPDSLAVSLGERATINCKSSQSLLNSRTRKNYLAWYQQKPGQSPKLLIYWTSTRKSGVPDRFSGSGSGTDFTLTISSLQAEDVAVYYCKQSFALRTFGQGTKVEIK	3.4 nM	0.014 s⁻¹	4.11e+06 M⁻¹ s⁻¹	–	–	–	–
38E4v2 Fab (Fab, V domains shown) VH: EVQLVQSGAEVKKPGASVKVSCKASGFTFTSYYIHWVRQAPGQGLEWIGWIYPENDNTKYNEKFKDRVTITADTSTSTAYLELSSLRSEDTAVYYCARDAYSRYYFDYWGQGTLVTVSS VL: DIVMTQSPDSLAVSLGERATINCKSSQSLLNSRTRKNYLAWYQQKPGQSPKLLIYWTSTRKSGVPDRFSGSGSGTDFTLTISSLQAEDVAVYYCKQSFILRTFGQGTKVEIK	–	–	–	1.6 nM	0.00359 s⁻¹	2.29e+06 M⁻¹ s⁻¹	–
38E4v4 Fab (Fab, V domains shown) VH: EVQLVQSGAEVKKPGASVKVSCKASGFTFTSYYIHWVRQAPGQGLEWIGWIYPENDNTKYNEKFKDRVTITADTSTSTAYLELSSLRSEDTAVYYCARDGYSRYYFDYWGQGTLVTVSS VL: DIVMTQSPDSLAVSLGERATINCKSSQSLLNSRTRKNYLAWYQQKPGQSPKLLIYWTSTRKSGVPDRFSGSGSGTDFTLTISSLQAEDVAVYYCKASFILRTFGQGTKVEIK	–	–	–	10.3 nM	0.00336 s⁻¹	325000 M⁻¹ s⁻¹	–
